Measured values reported in patent US11491212.

B1: FIXa-Y155F/K247N/N249S/R318Y/E410N (protein)
chain 1: not shown
chain 2: not shown
B2: FIXa-Y155F/K247N/N249S/R338E/T343R/R403E/E410N (protein)
chain 1: not shown
chain 2: not shown
B3: FIXa-Y155F/K247N/N249S/R318Y/R338E (protein)
chain 1: not shown
chain 2: not shown
B4: FIXa-K247N/N249S/R318Y/R338E/T343R/R403E (protein)
chain 1: not shown
chain 2: not shown
B5: FIXa-Y155F/K247N/N249S/R318Y/R403E (protein)
chain 1: not shown
chain 2: not shown
B6: FIXa-Y155F/K247N/N249S/T343R/R403E (protein)
chain 1: not shown
chain 2: not shown
B7: FIXa-Y155F/K247N/N249S/R318Y/T343R (protein)
chain 1: not shown
chain 2: not shown
B8: FIXa-R318Y/R338E/T343R/R403E/E410S (protein)
chain 1: not shown
chain 2: not shown
B9: FIXa-K247N/N249S/R338E/T343R/R403E/E410N (protein)
chain 1: not shown
chain 2: not shown
B10: FIXa-Y155F/K247N/N249S/R318Y/R338E/T343R/R403E (protein)
chain 1: not shown
chain 2: not shown

Biological target: Factor X, P00742
Sequence (P00742 whole entry, looked up): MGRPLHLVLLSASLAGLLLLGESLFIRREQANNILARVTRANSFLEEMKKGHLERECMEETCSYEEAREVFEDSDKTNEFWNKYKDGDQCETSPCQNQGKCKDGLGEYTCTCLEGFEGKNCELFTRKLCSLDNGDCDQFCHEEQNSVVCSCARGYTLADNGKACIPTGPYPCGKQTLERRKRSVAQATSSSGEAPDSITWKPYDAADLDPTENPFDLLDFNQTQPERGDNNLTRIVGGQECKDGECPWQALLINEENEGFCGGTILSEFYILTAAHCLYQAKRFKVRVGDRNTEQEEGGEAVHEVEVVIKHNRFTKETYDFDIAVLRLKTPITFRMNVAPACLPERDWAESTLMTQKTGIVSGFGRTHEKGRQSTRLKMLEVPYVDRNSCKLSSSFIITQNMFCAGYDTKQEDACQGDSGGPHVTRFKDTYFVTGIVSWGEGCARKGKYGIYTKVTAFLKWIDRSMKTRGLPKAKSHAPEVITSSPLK

Protein	% of WT kcat/KM [%]	KM [µM]	kcat/KM [M⁻¹ s⁻¹]
B1	155	0.0488	7.2e+07
B2		0.0264	3.7e+08
B3	632	0.0263	2.9e+08
B4		0.0284	4.1e+08
B5	34	0.109	1.6e+07
B6		0.0596	8.5e+07
B7	549	0.0421	2.5e+08
B8		0.019	4.4e+08
B9	930	0.0251	4.3e+08
B10		0.0365	2.9e+08
